Values quoted from earlier work, collected in patent US10500169B2, “Supression of IgE production by compounds derived from traditional chinese medicine” (Sean N. Parker Foundation, priority 2014, dated 2019).

Test system: peanut allergic patients

B1: TNX-901: anti-IgE antibody (antibody, chains of the INN, looked up, V domains shown)
VH: QVQLVQSGAEVKKPGASVKVSCKASGYTFSMYWLEWVRQAPGHGLEWVGEISPGTFTTNYNEKFKARATFTADTSTNTAYMELSSLRSEDTAVYYCARFSHFSGSNYDYFDYWGQGTLVTVSS
VL: DILLTQSPGTLSLSPGERATLSCRASQSIGTNIHWYQQKPGQAPRLLIKYASESISGIPSRFSGSGSGTDFTLTISRLEPEDFAMYYCQQSDSWPTTFGQGTKVEIK
median threshold of sensitivity to peanut after treatment (increased from 178 mg peanut protein): 2.8 grams
symptoms following peanut challenge (vs placebo group): significant decrease in symptoms
